Changes are numbered by the printed parent chain.
Tests used:
[Tyr25]hGLP-2(1-33) = target: T1, [Tyr25]hGLP-2(1-33)
T1 chain: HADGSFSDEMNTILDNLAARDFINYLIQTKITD

[aAbu2]hGLP-2(1-33) = target: T2, [aAbu2]hGLP-2(1-33)
T2 chain: T1 chain with A2X, Y25W

[Gly2,Ala3]hGLP-2(1-33) = target: T3, [Gly2,Ala3]hGLP-2(1-33)
T3 chain: T1 chain with A2G, D3A, Y25W

[tBuGly2]hGLP-2 = target: T4, [tBuGly2]hGLP-2
T4 chain: T1 chain with A2X, Y25W

[Ala5, Ala7]hGLP-2(1-33) = target: T5, [Ala5, Ala7]hGLP-2(1-33)
T5 chain: T1 chain with S5A, S7A, Y25W

[Val2]hGLP-2(1-33) = target: T6, [Val2]hGLP-2(1-33)
T6 chain: T1 chain with A2V, Y25W

[Arg30]hGLP-2(1-33) = target: T7, [Arg30]hGLP-2(1-33)
T7 chain: T1 chain with Y25W, K30R

[Gly2,Ala5]hGLP-2(1-33) = target: T8, [Gly2,Ala5]hGLP-2(1-33)
T8 chain: T1 chain with A2G, S5A, Y25W

[Gly2]ratGLP-2(1-33) = target: T9, [Gly2]ratGLP-2(1-33)
T9 chain: T1 chain with A2G, A19T, Y25W

hGLP-2(1-33) = target: T10, hGLP-2(1-33)
T10 chain: T1 chain with Y25W

[Thr2]hGLP-2(1-33) = target: T11, [Thr2]hGLP-2(1-33)
T11 chain: T1 chain with A2T, Y25W

[Pro3]hGLP-2(1-33) = target: T12, [Pro3]hGLP-2(1-33)
T12 chain: T1 chain with D3P, Y25W

[D-Ala2]hGLP-2(1-33) = target: T13, [D-Ala2]hGLP-2(1-33)
T13 chain: T1 chain with Y25W

[PhGly2]hGLP-2(1-33) = target: T14, [PhGly2]hGLP-2(1-33)
T14 chain: T1 chain with A2X, Y25W

[Met2]hGLP-2(1-33) = target: T15, [Met2]hGLP-2(1-33)
T15 chain: T1 chain with A2M, Y25W

[Pen2]hGLP-2(1-33) = target: T16, [Pen2]hGLP-2(1-33)
T16 chain: T1 chain with A2X, Y25W

[Glu33]hGLP-2(1-33) = target: T17, [Glu33]hGLP-2(1-33)
T17 chain: T1 chain with Y25W, D33E

[Ile2]hGLP-2(1-33) = target: T18, [Ile2]hGLP-2(1-33)
T18 chain: T1 chain with A2I, Y25W

[Aib2]hGLP-2(1-33) = target: T19, [Aib2]hGLP-2(1-33)
T19 chain: T1 chain with A2X, Y25W

[desNH2Tyr1]hGLP-2(1-33) = target: T20, [desNH2Tyr1]hGLP-2(1-33)
T20 chain: T1 chain with H1Y, Y25W

ratGLP-2(1-33) = target: T21, ratGLP-2(1-33)
T21 chain: T1 chain with A19T, Y25W

[Phe2]hGLP-2(1-33) = target: T22, [Phe2]hGLP-2(1-33)
T22 chain: T1 chain with A2F, Y25W

[Gly2,Ala4]hGLP-2(1-33) = target: T23, [Gly2,Ala4]hGLP-2(1-33)
T23 chain: T1 chain with A2G, G4A, Y25W

[Pro1]hGLP-2(1-33) = target: T24, [Pro1]hGLP-2(1-33)
T24 chain: T1 chain with H1P, Y25W

[1] = target: T25, [Gly2, Arg34]hGLP-2(1-34)
T25 chain: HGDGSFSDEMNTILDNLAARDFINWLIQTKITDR

[Tyr1, Gly2]hGLP-2(1-33) = target: T26, [Tyr1, Gly2]hGLP-2(1-33)
T26 chain: T1 chain with H1Y, A2G, Y25W

[His2]hGLP-2(1-33) = target: T27, [His2]hGLP-2(1-33)
T27 chain: T1 chain with A2H, Y25W

[Asp2]hGLP-2(1-33) = target: T28, [Asp2]hGLP-2(1-33)
T28 chain: T1 chain with A2D, Y25W

[Glu2]hGLP-2(1-33) = target: T29, [Glu2]hGLP-2(1-33)
T29 chain: T1 chain with A2E, Y25W

[Nval2]hGLP-2(1-33) = target: T30, [Nval2]hGLP-2(1-33)
T30 chain: T1 chain with A2X, Y25W

[DAla2]ratGLP-2(1-33) = target: T31, [DAla2]ratGLP-2(1-33)
T31 chain: T1 chain with A19T, Y25W

[Lys2]hGLP-2(1-33) = target: T32, [Lys2]hGLP-2(1-33)
T32 chain: T1 chain with A2K, Y25W

[Ser2]hGLP-2(1-33) = target: T33, [Ser2]hGLP-2(1-33)
T33 chain: T1 chain with A2S, Y25W

[Tyr1]ratGLP-2(1-33) = target: T34, [Tyr1]ratGLP-2(1-33)
T34 chain: T1 chain with H1Y, A19T, Y25W

[Ala4]ratGLP-2(1-33) = target: T35, [Ala4]ratGLP-2(1-33)
T35 chain: T1 chain with G4A, A19T, Y25W

[Gly2,Ala24]hGLP-2(1-33) = target: T36, [Gly2,Ala24]hGLP-2(1-33)
T36 chain: T1 chain with A2G, N24A, Y25W

[bAla2]hGLP-2(1-33) = target: T37, [bAla2]hGLP-2(1-33)
T37 chain: T1 chain with A2X, Y25W

[Ala1,Gly2]hGLP-2(1-33) = target: T38, [Ala1,Gly2]hGLP-2(1-33)
T38 chain: T1 chain with H1A, A2G, Y25W

[Phe25]hGLP-2(1-33) = target: T39, [Phe25]hGLP-2(1-33)
T39 chain: T1 chain with Y25F

[2] = target: T40, [Arg-2,Arg-1]ratGLP-2(2-33)
T40 chain: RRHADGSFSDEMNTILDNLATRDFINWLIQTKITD

[Tyr2]hGLP-2(1-33) = target: T41, [Tyr2]hGLP-2(1-33)
T41 chain: T1 chain with A2Y, Y25W

[Val2]GLP-2(1-33) = target: T42, [Val2]GLP-2(1-33)
T42 chain: T1 chain with A2V, A19T, Y25W

[Ser2,Gln3]hGLP-2(1-33) = target: T43, [Ser2,Gln3]hGLP-2(1-33)
T43 chain: T1 chain with A2S, D3Q, Y25W

[Pro2]hGLP-2(1-33) = target: T44, [Pro2]hGLP-2(1-33)
T44 chain: T1 chain with A2P, Y25W

[3] = target: T45, [Gly2, Tyr34]hGLP-2(1-34)
T45 chain: T25 chain with R34Y

[Gln2]hGLP-2(1-33) = target: T46, [Gln2]hGLP-2(1-33)
T46 chain: T1 chain with A2Q, Y25W

[Arg-l]ratGLP-2(-1-33) = target: T47, [Arg-l]ratGLP-2(-1-33)
T47 chain: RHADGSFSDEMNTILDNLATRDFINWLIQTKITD

Ac-ratGLP-2(1-33) = target: T48, Ac-ratGLP-2(1-33)
T48 chain: T1 chain with A19T, Y25W

[Gly2]hGLP-2(1-33) = target: T49, [Gly2]hGLP-2(1-33)
T49 chain: T1 chain with A2G, Y25W

[Asn2]hGLP-2(1-33) = target: T50, [Asn2]hGLP-2(1-33)
T50 chain: T1 chain with A2N, Y25W

[Glu3]ratGLP-2(1-33) = target: T51, [Glu3]ratGLP-2(1-33)
T51 chain: T1 chain with D3E, A19T, Y25W

[Asp1]hGLP-2(1-33) = target: T52, [Asp1]hGLP-2(1-33)
T52 chain: T1 chain with H1D, Y25W

B1: human placental DPP-IV (Calbiochem, La Jolla, Calif., cat. #317624) (protein)
chain: MKTPWKVLLGLLGAAALVTIITVPVVLLNKGTDDATADSRKTYTLTDYLKNTYRLKLYSLRWISDHEYLYKQENNILVFNAEYGNSSVFLENSTFDEFGHSINDYSISPDGQFILLEYNYVKQWRHSYTASYDIYDLNKRQLITEERIPNNTQWVTWSPVGHKLAYVWNNDIYVKIEPNLPSYRITWTGKEDIIYNGITDWVYEEEVFSAYSALWWSPNGTFLAYAQFNDTEVPLIEYSFYSDESLQYPKTVRVPYPKAGAVNPTVKFFVVNTDSLSSVTNATSIQITAPASMLIGDHYLCDVTWATQERISLQWLRRIQNYSVMDICDYDESSGRWNCLVARQHIEMSTTGWVGRFRPSEPHFTLDGNSFYKIISNEEGYRHICYFQIDKKDCTFITKGTWEVIGIEALTSDYLYYISNEYKGMPGGRNLYKIQLSDYTKVTCLSCELNPERCQYYSVSFSKEAKYYQLRCSGPGLPLYTLHSSVNDKGLRVLEDNSALDKMLQNVQMPSKKLDFIILNETKFWYQMILPPHFDKSKKYPLLLDVYAGPCSQKADTVFRLNWATYLASTENIIVASFDGRGSGYQGDKIMHAINRRLGTFEVEDQIEAARQFSKMGFVDNKRIAIWGWSYGGYVTSMVLGSGSGVFKCGIAVAPVSRWEYYDSVYTERYMGLPTPEDNLDHYRNSTVMSRAENFKQVEYLLIHGTADDNVHFQQSAQISKALVDVGVDFQAMWYTDEDHGIASSTAHQHIYTHMSHFIKQCFSLP
With B1 the “% Cleaved by DPP-IV” value ([Tyr25]hGLP-2(1-33)) was 48%, the “% Cleaved by DPP-IV” value ([aAbu2]hGLP-2(1-33)) was 49% and the “% Cleaved by DPP-IV” value ([Gly2,Ala3]hGLP-2(1-33)) was 0%. For the same protein, the “% Cleaved by DPP-IV” value ([tBuGly2]hGLP-2) was 0%, the “% Cleaved by DPP-IV” value ([Ala5, Ala7]hGLP-2(1-33)) was 77% and the “% Cleaved by DPP-IV” value ([Val2]hGLP-2(1-33)) was 13%. The “% Cleaved by DPP-IV” value ([Arg30]hGLP-2(1-33)) was 59%, the “% Cleaved by DPP-IV” value ([Gly2,Ala5]hGLP-2(1-33)) was 0% and the “% Cleaved by DPP-IV” value ([Gly2]ratGLP-2(1-33)) was 0%. The “extent of cleavage after 24 hour incubation (RP-HPLC)” value (from here on “extent of cleavage”) ([Gly2]ratGLP-2(1-33)) was “No cleavage products were detected”, the “% Cleaved by DPP-IV” value (hGLP-2(1-33)) was 60% and the “% Cleaved by DPP-IV” value ([Thr2]hGLP-2(1-33)) was 0%. For the same protein, the “% Cleaved by DPP-IV” value ([Pro3]hGLP-2(1-33)) was 0%, the “% Cleaved by DPP-IV” value ([D-Ala2]hGLP-2(1-33)) was 0% and the “% Cleaved by DPP-IV” value ([PhGly2]hGLP-2(1-33)) was 0%. For the same protein, the “% Cleaved by DPP-IV” value ([Met2]hGLP-2(1-33)) was 0%, the “% Cleaved by DPP-IV” value ([Pen2]hGLP-2(1-33)) was 20% and the “% Cleaved by DPP-IV” value ([Glu33]hGLP-2(1-33)) was 55%. The “% Cleaved by DPP-IV” value ([Ile2]hGLP-2(1-33)) was 0%, the “% Cleaved by DPP-IV” value ([Aib2]hGLP-2(1-33)) was 0% and the “% Cleaved by DPP-IV” value ([desNH2Tyr1]hGLP-2(1-33)) was 15%. The “% Cleaved by DPP-IV” value (ratGLP-2(1-33)) was 58%, the “extent of cleavage” value (ratGLP-2(1-33)) was 22% of the control peptide, rGLP-2, was cleaved by DPP-IV and the “% Cleaved by DPP-IV” value ([Phe2]hGLP-2(1-33)) was 0%. The “% Cleaved by DPP-IV” value ([Gly2,Ala4]hGLP-2(1-33)) was 0%, the “% Cleaved by DPP-IV” value ([Pro1]hGLP-2(1-33)) was 0% and the “% Cleaved by DPP-IV” value [1] was 0%. For the same protein, the “% Cleaved by DPP-IV” value ([Tyr1, Gly2]hGLP-2(1-33)) was 0%, the “% Cleaved by DPP-IV” value ([His2]hGLP-2(1-33)) was 0% and the “% Cleaved by DPP-IV” value ([Asp2]hGLP-2(1-33)) was 0%. For the same protein, the “% Cleaved by DPP-IV” value ([Glu2]hGLP-2(1-33)) was 0%, the “% Cleaved by DPP-IV” value ([Nval2]hGLP-2(1-33)) was 0% and the “% Cleaved by DPP-IV” value ([DAla2]ratGLP-2(1-33)) was 0%. The “extent of cleavage” value ([DAla2]ratGLP-2(1-33)) was “No cleavage products were detected”, the “% Cleaved by DPP-IV” value ([Lys2]hGLP-2(1-33)) was 0% and the “% Cleaved by DPP-IV” value ([Ser2]hGLP-2(1-33)) was 0%. The “% Cleaved by DPP-IV” value ([Tyr1]ratGLP-2(1-33)) was 100%, the “% Cleaved by DPP-IV” value ([Ala4]ratGLP-2(1-33)) was 72% and the “% Cleaved by DPP-IV” value ([Gly2,Ala24]hGLP-2(1-33)) was 0%. The “% Cleaved by DPP-IV” value ([bAla2]hGLP-2(1-33)) was 0%, the “% Cleaved by DPP-IV” value ([Ala1,Gly2]hGLP-2(1-33)) was 0% and the “% Cleaved by DPP-IV” value ([Phe25]hGLP-2(1-33)) was 54%. For the same protein, the “% Cleaved by DPP-IV” value [2] was 0%, the “% Cleaved by DPP-IV” value ([Tyr2]hGLP-2(1-33)) was 0% and the “% Cleaved by DPP-IV” value ([Val2]GLP-2(1-33)) was 0%. The “% Cleaved by DPP-IV” value ([Ser2,Gln3]hGLP-2(1-33)) was 0%, the “% Cleaved by DPP-IV” value ([Pro2]hGLP-2(1-33)) was 16% and the “% Cleaved by DPP-IV” value [3] was 0%. For the same protein, the “% Cleaved by DPP-IV” value ([Gln2]hGLP-2(1-33)) was 0%, the “% Cleaved by DPP-IV” value ([Arg-l]ratGLP-2(-1-33)) was 0% and the “% Cleaved by DPP-IV” value (Ac-ratGLP-2(1-33)) was 0%. The “% Cleaved by DPP-IV” value ([Gly2]hGLP-2(1-33)) was 0%, the “% Cleaved by DPP-IV” value ([Asn2]hGLP-2(1-33)) was 0% and the “% Cleaved by DPP-IV” value ([Glu3]ratGLP-2(1-33)) was 50%. The “% Cleaved by DPP-IV” value ([Asp1]hGLP-2(1-33)) was 0%.
